IC50 data for one molecule are collected here from PMC4738285 (Scientific Reports, 2016).

In the test the target is T1, recombinant human Hsp70 (human, UniProt P0DMV8 1-641).
T1 construct: also called stress-inducible chaperone Hsp70
Description: other fluorescence titration. The settings on record: both partners purified.

T1 sequence (P0DMV8 whole entry): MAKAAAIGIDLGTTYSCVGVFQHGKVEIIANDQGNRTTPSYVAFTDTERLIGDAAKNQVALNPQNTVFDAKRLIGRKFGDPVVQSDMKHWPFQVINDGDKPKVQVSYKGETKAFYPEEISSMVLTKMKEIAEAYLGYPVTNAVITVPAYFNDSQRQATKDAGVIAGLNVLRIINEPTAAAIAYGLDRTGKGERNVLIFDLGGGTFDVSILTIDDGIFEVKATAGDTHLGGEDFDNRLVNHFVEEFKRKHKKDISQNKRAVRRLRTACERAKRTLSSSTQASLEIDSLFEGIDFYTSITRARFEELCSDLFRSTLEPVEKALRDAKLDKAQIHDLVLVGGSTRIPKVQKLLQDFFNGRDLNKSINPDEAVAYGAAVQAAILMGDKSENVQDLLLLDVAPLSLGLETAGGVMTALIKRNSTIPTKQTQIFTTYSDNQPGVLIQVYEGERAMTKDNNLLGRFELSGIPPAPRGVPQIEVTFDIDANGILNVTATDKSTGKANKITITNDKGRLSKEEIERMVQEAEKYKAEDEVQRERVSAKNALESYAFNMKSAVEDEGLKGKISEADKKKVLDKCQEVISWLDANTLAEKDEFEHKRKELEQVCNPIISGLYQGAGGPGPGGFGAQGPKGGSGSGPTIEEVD

For the molecule NRLLLTG (also called NR peptide) [peptide NRLLLTG], the IC50 (in general, the point on the concentration scale where inhibition reaches its midpoint) was 11.5 ± 3.8 µM.
